In patent publication US20080193947A1, “Complementary Peptides For Beta-Amyloid 29-42 Peptide” (priority 2004, published 2008):
Where no end group is shown, it is not given here.

Columns and labels:
[1] = tested on: SH-SY5Y cells; assay: Cell toxicity assay (MTS) of single peptides on human neuroblastoma cell line; format: cell-based; details: 24 h, FIG. 7 / FIG. 8
[2] = biological target: T1, Aβ 29-42 (Homo sapiens, UniProt P05067); format: biochemical; details: for % of fusion after 15 minutes: 1/1 peptide ratio, room temperature, average of plateau (10-15 minutes) of three experiments, Aβ alone = 100%
[3] = tested on: SH-SY5Y cells; assay: Cell toxicity assay (MTS) in presence of both the Aβ 1-42 and ApoE 270-287 peptides; format: cell-based, human; details: 2 μM ApoE 270-287 + 100 μM Aβ 1-42 (ratio 1/50), 24 h, FIG. 9
[4] = biological target: T1, Aβ 29-42; format: biochemical; parameters: made in house; host or cells: chemical peptide synthesis (no expression host); details: for HPTS fluorescence signal when added to Aβ 29-42 (inhibition of membrane destabilization): independently of the mutant/Aβ 29-42 molar ratio, Aβ peptide/lipid molar ratio 0.4, FIGS. 4a and b
Source text: (§1) In this leakage assay, performed according to the procedure described in Ellens et al. (Ellens, H., Bentz, J., and Szoka, F. C. (1985) Biochemistry 24, 3099-3106), a substance encapsulated in the liposomes is followed by fluorescence measurement. HPTS ([…]) and his quencher DPX (p-xylylenebis[pyridinium]bromide) were both encapsulated in the aqueous phase of the same liposomes. Liposomes were eluted on a Sephadex G75 column to remove the excess of HPTS and DPX.
(§2) Fluorescence was measured at room temperature using excitation and emission wavelengths of 450 nm and 512 nm, respectively. Leakage induced by the Aβ peptide was followed by measuring the dequenching of HPTS released into the medium. The percentage of release induced by the peptide was defined as Ft/Ftot×100, where Ft is the fluorescence signal measured at time t and Ftot is the signal obtained after lysing the vesicles with 0.5% Triton X100.

[5] = tested on: Aβ 29-42; format: biochemical; details: without Aβ 29-42; data not shown
Source text: as §1, §2

[6] = biological target: T2, β-Amyloid peptidic fragment 29-42 (Aβ 29-42) (C-terminal and N-terminal blocked (N-amidated and C-acetylated) (so in the source)); assay: cell-based or functional assay
[7] = biological target: T2, β-Amyloid peptidic fragment 29-42 (Aβ …); assay: cell-based or functional assay; remark: listed apart in the source

Ac-EDMQRQWAGLVEKVQAAV-NH2 [ApoE WT]
cell toxicity (viability against increasing peptide concentrations) [1]: induces cell toxicity only at 100 μM | % of fusion after 15 minutes [2]: 89% | fluorescence signal (lipid fusion), Aβ 29-42 alone taken as 100% fusion reference ([2]; FIG. 3, added to Aβ 29-42 at molar ratio of 1, Aβ peptide/lipid ratio 0,4 (mol/mol)): about 91% | cell viability in presence of Aβ 1-42 and the complementary peptide [3]: 80%

Aβ 1-40: β-Amyloid 1-40 peptide
cell toxicity (viability against increasing peptide concentrations) [1]: does not induce any

EDMQRQLAGVVEKVQAAV (also: N- and C-terminal blocking) [ApoE mutant 11, peptide derived from ApoE WT]
HPTS fluorescence signal when added to Aβ 29-42 (inhibition of membrane destabilization) [4]: much weaker | destabilization effects of the peptide alone on the membranes [5]: no destabilization effects on the membranes

EDMQRQMAGLMEKMQAAV (also: N- and C-terminal blocking) [ApoE mutant 413, peptide derived from ApoE WT]
HPTS fluorescence signal when added to Aβ 29-42 (inhibition of membrane destabilization) [4]: much weaker | destabilization effects of the peptide alone on the membranes [5]: no destabilization effects on the membranes

GAIIGLMVGGVVIA (listed as Homo sapiens) [Aβ 29-42, C-terminal part of the β-Amyloid protein, tilted fusion peptide]
% of leakage after 15 minutes ([4]; 1/1 peptide ratio, room temperature, average of plateau (10-15 minutes) of three experiments): 28% | % of fusion after 15 minutes [2]: 100%

Ac-EDMQRQMAGLMEKMQAAV-NH2 [ApoE mutant 413]
R18 fluorescence signal of lipid fusion against Aβ 29-42 alone as 100% (FIG. 3, molar ratio of 1) [6]: 25% | % of fusion after 15 minutes (R18 lipid fusion of SUV induced by Aβ 29-42, 1/1 peptide ratio) [7]: 21% | % of leakage after 15 minutes (HPTS/DPX liposome leakage induced by Aβ 29-42, 1/1 peptide ratio) [7]: 4%

Ac-EDMQRQLAGVVEKVQAAV-NH2 [ApoE mutant 11]
R18 fluorescence signal of lipid fusion against Aβ 29-42 alone as 100% (FIG. 3, molar ratio of 1) [6]: 23% | % of fusion after 15 minutes (R18 lipid fusion of SUV induced by Aβ 29-42, 1/1 peptide ratio) [7]: 17% | % of leakage after 15 minutes (HPTS/DPX liposome leakage induced by Aβ 29-42, 1/1 peptide ratio) [7]: 0%

EDMQRQWAGLVEKVQAAV (not fully specified (N-terminus, C-terminus)) [wild type Apolipoprotein E3 peptide 270-287 (ApoE WT)]
R18 fluorescence signal of lipid fusion against Aβ 29-42 alone as 100% (FIG. 3, molar ratio of 1) [6]: ~91% | % of fusion after 15 minutes (R18 lipid fusion of SUV induced by Aβ 29-42, 1/1 peptide ratio) [7]: 89%
